Data: patent US7893027B2, “Treatment of ocular wounds and ulcers” (The Board of Regents of the University of Oklahoma, priority 2002, dated 2011)

How the values were obtained:
[1] = system: human corneal epithelial cells (HCEC); assay: CyQUANT cell proliferation assay; format: cell-based; conditions: for Increase in cell numbers: 72 hr post treatment
Description: Human corneal epithelial cells were seeded onto 48 well tissue culture plates (7.5×10^3 cells/well, FALCON, Franklin Lakes, N.J.) and cultured as described above.
Cultures were changed to growth factor-free basic medium overnight and treated with various concentrations of CAP37 (0-2000 ng/ml) for 48-72 hrs. Recombinant human Epidermal Growth Factor (EGF 50 ng/ml, BECTON DICKINSON, Bedford, Mass.) and recombinant human Hepatocyte Growth Factor/Scatter Factor (HGF/SF 20 ng/ml, BECTON DICKINSON) were used as positive controls and growth factor-free basic medium as negative control. The medium was aspirated and new medium with CAP37 or growth factors were added to the cultures every 24 hr. The CyQUANT Cell Proliferation Assay Kit (MOLECULAR PROBES, Eugene, Oreg.) was used to quantify cell proliferation exactly according to the manufacturer's specifications. Briefly, cells were frozen, thawed, and lysed with the addition of the lysis buffer containing the green fluorescent dye, CyQUANT GR which binds to nucleic acids and the fluorescence levels read on fluorescent micro plate reader (fmax MOLECULAR DEVICES, Sunnyvale, Calif.) with filters for 485 nm excitation and 538 nm emission.

[2] = system: human corneal epithelial cells (HCEC); assay: Modified Boyden chamber chemotaxis / checkerboard assay; format: cell-based; conditions: for Number of cells migrated: 4 hr
Description: Human corneal epithelial cells were cultured in basic medium overnight, detached using trypsin-EDTA as described above and resuspended at a final concentration of 8×10^5 cells/ml. Chemotaxis assays were performed using the modified Boyden chamber assay described previously (13). Briefly, 200 (μl of cell suspension was added to the upper chamber and chemoattractants including recombinant CAP37 (10-2000 ng/ml) and the positive control recombinant human Platelet Derived Growth Factor-BB (PDGF-BB, 10 ng/ml, Collaborative Biomedical Products, Bedford Mass.) in 0.1% BSA (endotoxin-low-Sigma, St. Louis) in Geys' Buffer (GIBCO) were added to the lower chamber. The chambers were separated by an 8.0 μm pore membrane (13 mm polyvinylpyrrolidone-free, Whatman, Clifton, N.J.). Membranes were pre-coated with 50 μg/ml collagen type I rat tail (Collaborative Biomedical Products) in 0.02N acetic acid at room temperature for 1 hr and then air dried. Membranes were re-hydrated in basic cell culture medium immediately prior to commencement of each experiment. The negative control in these experiments was 0.1% BSA in Geys' buffer. The chambers were incubated in a humidified atmosphere (37° C., 5% CO2) for 4 hr, the filters were removed, stained with DIFF-QUICK (Dade Behring, Düdingen, Switzerland) and mounted with Permount (FISHER SCIENTIFIC, Pittsburgh, Pa.). The filters were viewed under oil immersion (×400 magnification, BH-2, Olympus, Lake Success, N.Y.) and the total numbers of cells migrated through to the underside of the filter were counted in five different fields on each slide. Triplicates were set up for each experimental point.
To assess whether CAP37 had chemokinetic properties, various concentrations of CAP37 (0, 10, 100 and 1000 ng/ml) were added to the upper chamber as well as to the lower chamber (0, 10, 100, 500, 1000 ng/ml) and a checkerboard assay performed according to the methodology of Zigmond and Hirsch (46).

[3] = system: VCAM-1; assay: RT-PCR of adhesion molecule mRNA in HCEC; format: cell-based, human; conditions: CAP37 1 μg/ml, 0-24 hr
Description: (§1) Cultured HCEC were treated with CAP37 (1 μg/ml) for 0-24 hr at 37° C. Total cellular RNA was isolated from untreated and treated HCEC according to vendor specifications (TRIzol™, GIBCO BRL). After reverse-transcription of 5 μg of total RNA by SuperScript™ II RT (GIBCOBRL) the resulting single stranded cDNA was amplified by PCR (BIOMETRA TGRADIENT, Göttingen, Germany) using specific primers for ICAM-1 (([…] (SEQ ID NO:11) and […] (SEQ ID NO:12)); VCAM-1 (([…] (SEQ ID NO:13) and […] (SEQ ID NO:14)); PECAM-1 (([…] (SEQ ID NO:15) and […] (SEQ ID NO:16)); E-selectin (([…] (SEQ ID NO:17) and […] (SEQ ID NO:18)); and β-actin ((TACCTCATGAAGATCCTCA (SEQ ID NO:19) and TTCGTGGATGCCACAGGAC (SEQ ID NO:20))) synthesized by the Molecular Biology Resource Facility, University of Oklahoma Health Sciences Center. The thermocycler conditions for ICAM-1 and VCAM-1 were 95° C. for 5 min initially, with 30 cycles at 95° C. for 1 min, 58° C. for 45 sec, 72° C. for 1 min followed by a final extension at 72° C. for 7 min. The conditions for E-selectin were 95° C. for 5 min initially, with 30 cycles at 94° C. for 1 min, 58° C. for 1 min, 72° C. for 1 min followed by a final extension at 72° C. for 5 min. The conditions for PECAM-1 were 95° C. for 5 min initially, with 30 cycles at 95° C. for 45 sec, 60° C. for 1 min, 72° C. for 1 min followed by a final extension at 72° C. for 5 min.
(§2) Amplified DNA fragments were separated by electrophoresis on a 1% agarose gel and visualized by exposure to UV after ethidium bromide (0.5 μg/ml) staining. Expected sizes for ICAM-1, VCAM-1, PECAM-1, E-selectin and β-actin were 943 bp, 700 bp, 677 bp, 315 bp and 267 bp, respectively. To assess the integrity of the cDNA, primers for human β-actin were used.

[4] = system: E-selectin; assay: RT-PCR of adhesion molecule mRNA in HCEC; format: cell-based, human; conditions: CAP37 1 μg/ml, 0-24 hr
Description: as §1, §2

[5] = system: PECAM-1; assay: RT-PCR of adhesion molecule mRNA in HCEC; format: cell-based, human; conditions: CAP37 1 μg/ml
Description: as §1, §2

[6] = system: ICAM-1; assay: RT-PCR of adhesion molecule mRNA in HCEC; format: cell-based, human; conditions: CAP37 1 μg/ml, beginning at 2 hr and lasting through 24 hr
Description: as §1, §2

B1: CAP37: Cationic Antimicrobial Protein of Mr 37 kDa; recombinant protein from human 293 cells, identical to native PMN-derived CAP37 (SEQ ID NO:1) (protein, listed as Homo sapiens)
chain: IVGGRKARPRQFPFLASIQNQGRHFCGGALIHARFVMTAASCFQSQNPGVSTVVLGAYDLRRRERQSRQTFSISSMSENGYDPQQNLNDLMLLQLDREANLTSSVTILPLPLQNATVEAGTRCQVAGWGSQRSGGRLSRFPRFVNVTVTPEDQCRPNNVCTGVLTRRGGICNGDGGTPLVCEGLAHGVASFSLGPCGRGPDFFTRVALFRDWIDGVLNNPGP
Levels of proliferation relative to positive controls ([1]; 1000-2000 ng/ml, 48 hours): comparable to those obtained with the two positive controls, EGF and HGF | Proliferation of HCEC ([1]; 48 hours post treatment, versus culture medium alone): significant increase in proliferation over basal levels | Increase in cell numbers ([1]; 1000 ng/ml): approximately two | Increase in cell numbers ([1]; 2000 ng/ml): three | Chemotactic activity ([2]; 2000 ng/ml): reduced but still measurably active | Concentration range of maximal chemotactic activity ([2]; Boyden chamber): 500 to 1000 ng/mL | Number of cells migrated ([2]; CAP37 above the filter 0 ng/ml, below the filter 10 ng/ml): 28.56 ± 7.64 | Number of cells migrated ([2]; CAP37 above the filter 0 ng/ml, below the filter 100 ng/ml): 39.82 ± 6.20 | Number of cells migrated ([2]; CAP37 above the filter 0 ng/ml, below the filter 500 ng/ml): 68.89 ± 7.70 | Number of cells migrated ([2]; CAP37 above the filter 0 ng/ml, below the filter 1000 ng/ml): 67.34 ± 8.42 | Number of cells migrated ([2]; CAP37 above the filter 10 ng/ml, below the filter 10 ng/ml): 27.63 ± 3.03 | Number of cells migrated ([2]; CAP37 above the filter 10 ng/ml, below the filter 100 ng/ml): 39.80 ± 6.93 | Number of cells migrated ([2]; CAP37 above the filter 10 ng/ml, below the filter 500 ng/ml): 52.40 ± 15.76 | Number of cells migrated ([2]; CAP37 above the filter 10 ng/ml, below the filter 1000 ng/ml): 62.73 ± 9.66 | Number of cells migrated ([2]; CAP37 above the filter 100 ng/ml, below the filter 100 ng/ml): 36.63 ± 6.48 | Number of cells migrated ([2]; CAP37 above the filter 100 ng/ml, below the filter 1000 ng/ml): 48.57 ± 15.58 | Number of cells migrated ([2]; CAP37 above the filter 1000 ng/ml, below the filter 100 ng/ml): 28.08 ± 2.76 | Number of cells migrated ([2]; CAP37 above the filter 1000 ng/ml, below the filter 1000 ng/ml): 38.13 ± 6.07 | Levels of migration relative to positive control ([2]; PDGF-BB 10 ng/ml as positive control): comparable to those obtained with the positive control, PDGF | mRNA expression of VCAM-1 [3]: did not show increase in mRNA expression | mRNA expression of E-selectin [4]: did not show increase in mRNA expression | Time PECAM-1 message first detected after stimulation [5]: 2 h | Time of maximum PECAM-1 message [5]: 4 h | PECAM-1 message ([5]; transient, not detected after 6 hr): upregulated | ICAM-1 message [6]: clear upregulation of ICAM-1 message
